Measurements from PMC9470164, “Membrane-mediated dimerization potentiates PIP5K lipid kinase activity” (eLife, 2022).

How the values were obtained:
[1] = target: mouse PIP5KA, purified (mouse)
[2] = target: human PIP5KB (D51R), purified, unlabelled (human)
[3] = target: mNG-PIP5KB, recombinantly expressed and purified (human) (UniProt O14986)
[4] = target: mNG-PIP5KB, recombinantly expressed and purified (human) (UniProt O14986); assay: single-molecule TIRF molecular brightness, photobleaching and tracking on supported lipid bilayers; purified mNG kinases at 100 pM; equilibrium membrane binding at ~600 kinases per field of view (0.2 kinases/µm^2); particles with intensity ≥8200 A.U. counted as dimers; membrane 96% DOPC, 4% PI(4,5)P2
[5] = target: mouse PIP5KA (D92R), purified (mouse)
[6] = target: the molecule itself; assay: single-molecule TIRF molecular brightness and photobleaching on supported lipid bilayers; mNG-tagged kinase in HEK293 cell lysate diluted ~10,000-fold to ~10 pM (legend: 1 pM mNG-PIP4KB, 5 pM mNG-PIP5K); low surface density ~0.03 molecules/µm^2; membrane 96% DOPC, 4% PI(4,5)P2; 23°C
[7] = target: the molecule itself; assay: single-molecule TIRF molecular brightness on supported lipid bilayers; purified kinases labelled with Alexa488 by Sortase-mediated peptide ligation; membrane 96% DOPC, 4% PI(4,5)P2

mouse PIP5KA, purified (enzyme) gave a reaction half-time of PI(4,5)P2 production at 5, 2.5 and 1 nM kinase (28 s, 49 s, 90 s) [1] of 90 s.

“human PIP5KB (D51R), purified, unlabelled (enzyme)” was tested, and the lipid kinase activity on supported lipid bilayers, reduction against wild-type PIP5KB [2] was 7 fold.

“mNG-PIP5KB, recombinantly expressed and purified (from UniProt O14986 1-540) (enzyme)” was tested, and the effective phosphorylation rate constant per membrane-bound kinase (after the transition from slow to fast kinetics) (lipids/µm^2•s per kinase) [3] was 0.0027, the fold frequency of dimers against mNG-PIP5KB (D51R) [4] was 5 fold and the stoichiometry N [4] was 2. It also gave a time that dimers persist before photobleaching or dissociating [4] of 1 to 2 s.

mouse PIP5KA (D92R), purified (enzyme) showed a reaction half-time of PI(4,5)P2 production at 5, 2.5 and 1 nM kinase (71 s, 139 s, 270 s) [5] of 270 s.

B1: mNeonGreen-tagged human phosphatidylinositol 5-phosphate 4-kinase type-2 beta (mNG-PIP4KB) (enzyme, UniProt P78356 1-416, looked up)
chain: MSSNCTSTTAVAVAPLSASKTKTKKKHFVCQKVKLFRASEPILSVLMWGVNHTINELSNVPVPVMLMPDDFKAYSKIKVDNHLFNKENLPSRFKFKEYCPMVFRNLRERFGIDDQDYQNSVTRSAPINSDSQGRCGTRFLTTYDRRFVIKTVSSEDVAEMHNILKKYHQFIVECHGNTLLPQFLGMYRLTVDGVETYMVVTRNVFSHRLTVHRKYDLKGSTVAREASDKEKAKDLPTFKDNDFLNEGQKLHVGEESKKNFLEKLKRDVEFLAQLKIMDYSLLVGIHDVDRAEQEEMEVEERAEDEECENDGVGGNLLCSYGTPPDSPGNLLSFPRFFGPGEFDPSVDVYAMKSHESSPKKEVYFMAIIDILTPYDTKKKAAHAAKTVKHGAGAEISTVNPEQYSKRFNEFMSNILT
notes: human phosphatidylinositol 5-phosphate 4-kinase type-2 beta (PIP4KB, PIP4K2B); Lentiviral vector with SFFV promoter; also called hPIP4K2B; source: HEK293T, transiently transfected, in clarified cell lysate (diluted); not shown: mNeonGreen, N-terminal, kept
B1 was tested, and the “stoichiometry N” value [6] was 2.

B2: Alexa488-labelled human PIP4KB (Ax488-PIP4KB), purified (enzyme)
chain: GGGGGMSSNCTSTTAVAVAPLSASKTKTKKKHFVCQKVKLFRASEPILSVLMWGVNHTINELSNVPVPVMLMPDDFKAYSKIKVDNHLFNKENLPSRFKFKEYCPMVFRNLRERFGIDDQDYQNSVTRSAPINSDSQGRCGTRFLTTYDRRFVIKTVSSEDVAEMHNILKKYHQFIVECHGNTLLPQFLGMYRLTVDGVETYMVVTRNVFSHRLTVHRKYDLKGSTVAREASDKEKAKDLPTFKDNDFLNEGQKLHVGEESKKNFLEKLKRDVEFLAQLKIMDYSLLVGIHDVDRAEQEEMEVEERAEDEECENDGVGGNLLCSYGTPPDSPGNLLSFPRFFGPGEFDPSVDVYAMKSHESSPKKEVYFMAIIDILTPYDTKKKAAHAAKTVKHGAGAEISTVNPEQYSKRFNEFMSNILT
modifications: Alexa488 on the N-terminal amine of the ligated LPETGG peptide
notes: glycine stretch of his6-SUMO3-GGGGG-PIP4K2B left after SenP2 cleavage; human PIP4K2B isoform 2, 1-416aa; Surmise: Sortase ligation leaves Alexa488-LPET joined to GGGGG-PIP4K2B; also called Alexa488-PIP4K; PIP4K2B; source: E. coli BL21(DE3) Star, purified (Co2+ HiTrap Chelating, Superdex 200), labelled by Sortase-mediated peptide ligation; not shown: His6, N-terminal, cleaved; SUMO3, N-terminal, …
B2: binds [7].
